The values below come from patent US20060014678A1 (IMPERIAL INNOVATIONS, published 2006).

In the experiment the target is T1, NPY Y2 receptor.
T1 chain: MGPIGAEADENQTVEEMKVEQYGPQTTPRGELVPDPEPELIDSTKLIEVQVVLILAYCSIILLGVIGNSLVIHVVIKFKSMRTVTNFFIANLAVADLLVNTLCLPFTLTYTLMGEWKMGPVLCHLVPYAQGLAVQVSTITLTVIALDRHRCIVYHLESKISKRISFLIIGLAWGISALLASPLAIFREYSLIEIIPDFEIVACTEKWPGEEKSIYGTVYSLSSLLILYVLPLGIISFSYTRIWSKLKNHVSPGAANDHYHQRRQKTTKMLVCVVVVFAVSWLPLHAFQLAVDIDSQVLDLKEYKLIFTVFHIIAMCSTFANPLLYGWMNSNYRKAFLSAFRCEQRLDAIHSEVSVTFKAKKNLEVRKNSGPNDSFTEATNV
Put plainly: receptor-binding study on a cell line expressing the NPY Y2 receptor.

No end group written: not given here.

Broadly, the IC50 is the concentration that gives 50% inhibition. Low values mean inhibition by little substance, high ones a need for much substance. Molecule Ac-LRHYLNLLTRQRY (ends and bridges not checked, also called Y2A; Y2R selective agonist) [N-acetyl (Leu^28, Leu^31) NPY (24-36)] had an IC50 of 1.3 nM. This counts as single-digit nanomolar.
